T1: VARC (cytoplasmic acidic terminal sequence domain of P. falciparum erythrocyte membrane protein-1, PfEMP1) (Plasmodium falciparum, UniProt Q8IAK2 2467-2757)
T1 construct: also called ATS; cytoplasmic domain of PfEMP1; source: E. coli BL21 (DE3) CodonPlus, purified (Ni-NTA, gel permeation chromatography on Superdex 75)
T1 sequence: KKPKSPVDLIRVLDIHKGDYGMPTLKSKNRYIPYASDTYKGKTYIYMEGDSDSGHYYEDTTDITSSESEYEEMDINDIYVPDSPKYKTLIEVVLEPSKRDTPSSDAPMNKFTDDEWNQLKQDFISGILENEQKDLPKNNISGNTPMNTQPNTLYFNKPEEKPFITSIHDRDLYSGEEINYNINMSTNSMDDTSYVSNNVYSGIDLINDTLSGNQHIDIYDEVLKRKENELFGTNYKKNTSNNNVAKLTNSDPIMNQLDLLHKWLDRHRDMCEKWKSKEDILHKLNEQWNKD

B1: K2A1 (first of the two tandem repeats of the K2A region of knob associated histidine rich protein, KAHRP) (domain or fragment)
chain: KHHSSKKHEGNDGEGEKKKKSKKHKDHDGEKKKSKKHKDNEDAESVKSKK
notes: also called truncated K2A; source: E. coli BL21 (DE3) CodonPlus, purified (Ni-NTA, gel permeation chromatography on Superdex 75); not shown: His6, C-terminal, kept

Columns and labels:
[1] = target: VARC (acidic terminal segment, cytoplasmic domain fragment of PfEMP1, comprising VARC A and VARC B); assay: ITC (GE MicroCal ITC200); conditions: pH 6.9, 298 K, 0.013 M (no added salt), 10 mM sodium phosphate
[2] = target: T1, VARC (cytoplasmic acidic terminal …); assay: NMR titration; 2D [15N,1H] HSQC of 10 μM 15N-labelled K2A1 with unlabelled VARC added at 1:1, 1:2.5, 1:5, 1:7.5 and 1:10 molar ratios; 278 K; 10 mM sodium phosphate pH 6.2, 5 mM DTT, no additional salt (ionic strength 0.013 M); Kd by fit of amide chemical shift perturbations; the 1:5 complex also measured at 20, 50, 100 and 150 mM NaCl; conditions: both partners purified
[3] = target: T1, VARC (cytoplasmic acidic terminal …); assay: ITC; 0.7 mM K2A1 in the syringe, 0.07 mM VARC in the cell; 298 K; 10 mM sodium phosphate pH 6.9, 5 mM DTT, no additional salt; 40 injections of 1 μL; fitted to a sequential four site model, and to a simple hetero-association model (A + B <-> AB) in SEDPHAT for an apparent global Kd; conditions: both partners purified

Molecule	Kd (first value, four-site sequential model) [1]	Kd (fourth value, four-site sequential model) [1]	Kd (second value, four-site sequential model) [1]	Kd (third value, four-site sequential model) [1]	Kd [2]	Kd [3]	Kd of site 1 (four-site binding model) [3]	Kd of site 2 (four-site binding model) [3]	Kd of site 3 (four-site binding model) [3]	Kd of site 4 (four-site binding model) [3]
K2A1 (first tandem repeat of the K2A lysine-rich region of knob-associated histidine-rich protein, KAHRP)	9.8 µM	9.6 µM	10.3 µM	10.1 µM	–	–	–	–	–	–
B1	–	–	–	–	7 to 15 µM	32.1 µM	9.8 µM	10.3 µM	10.1 µM	9.6 µM
